{"source": "patent US20240417436A1", "about": "(BRIGHT PEAK THERAPEUTICS, published 2024)", "binders": {"B1": {"name": "CMP-150, MMP2 cleaved (ligand)", "chain": "APTSSSTKKTQLQLEHLLLDLK[Nle]ILNGINNYKNPKLTR[Nle]L[hSer][Yn3]KF[Ygp][Nle]PKKATELKHLQCLEEELKPLEEVL[hSer]LAQSKNFHLRPRDLISNINVIVLELKGSETTF[hSer]CEYADETATIVEFLNRWITFSQSIISTLT", "modifications": "also: K22 side chain bears remnant of cleavable peptide after MMP2 cut, cut site not given here"}, "B2": {"name": "CMP-150 (ligand)", "chain": "APTSSSTKKTQLQLEHLLLDLK[Nle]ILNGINNYKNPKLTR[Nle]L[hSer][Yn3]KF[Ygp][Nle]PKKATELKHLQCLEEELKPLEEVL[hSer]LAQSKNFHLRPRDLISNINVIVLELKGSETTF[hSer]CEYADETATIVEFLNRWITFSQSIISTLT", "modifications": "not fully specified (residue 22); ends and bridges not checked; also: cleavable moiety on Lys22 side chain, structure not given here"}, "B3": {"name": "CMP-155, MMP2 cleaved (ligand)", "chain": "APTSSSTKKTQLQLEHLLLDLQ[Nle]ILNGIENYKNPKLTR[Nle]L[hSer][Yn3]KF[Ygp][Nle]PKKATELKHLQCLEEELKPLEEVL[hSer]LAQSKNFHLRPRDLISNINVIVLELKGSETTF[hSer]CEYADETATIVEFLNRWITFSQSIISTLT", "modifications": "also: MMP2-cleaved cleavable peptide, macrocycle opened, cut site not given here, remnants on Glu29 and N-terminus unspecified"}, "B4": {"name": "CMP-139, MMP2 cleaved (ligand)", "chain": "[PEG16′]APTSSSTKKTQLQLEHLLLDLQ[Nle]ILNGIE(PEG16′)NYKNPKLTR[Nle]L[hSer][Yn3]KF[Ygp][Nle]PKKATELKHLQCLEEELKPLEEVL[hSer]LAQSKNFHLRPRDLISNINVIVLELKGSETTF[hSer]CEYADETATIVEFLNRWITFSQSIISTLT", "modifications": "numbers in words are those of the source; ends and bridges not checked; also: cleavable peptide cut by MMP2, macrocycle opened, cut site not given here"}, "B5": {"name": "CMP-136, MMP2 cleaved (ligand)", "chain": "APTSSSTKKTQLQLEHLLLDLQXILNGIENYKNPKLTRXLXYKFYXPKKATELKHLQCLEEELKPLEEVLXLAQSKNFHLRPRDLISNINVIVLELKGSETTFXCEYADETATIVEFLNRWITFSQSIISTLT", "modifications": "not fully specified; as CMP-136 but cleavable peptide cut by MMP2 (macrocycle opened); cut site not given"}, "B6": {"name": "CMP-138, MMP2 cleaved (ligand)", "chain": "B5 chain", "modifications": "not fully specified; as CMP-138 but cleavable peptide cut by MMP2 (macrocycle opened); cut site not given"}, "B7": {"name": "CMP-152 (ligand)", "chain": "PLGLAGAPTSSSTKKTQLQLEHLLLDLQ[Nle]ILNGINNYKNPKLTR[Nle]L[hSer][Yn3]KF[Ygp][Nle]PKKATELKHLQCLEEELKPLEEVL[hSer]LAQSKNFHLRPRDLISNINVIVLELKGSETTF[hSer]CEYADETATIVEFLNRWITFSQSIISTLT", "modifications": "linker N-38 via 1,5‑pentanedioic acid‑9x polyethylene glycol"}, "B8": {"name": "CMP-156, MMP2 cleaved (ligand)", "chain": "APTSSSTKKTQLQLEHLLEDLQ[Nle]ILNGINNYKNPKLTR[Nle]L[hSer][Yn3]KF[Ygp][Nle]PKKATELKHLQCLEEELKPLEEVL[hSer]LAQSKNFHLRPRDLISNINVIVLELKGSETTF[hSer]CEYADETATIVEFLNRWITFSQSIISTLT", "modifications": "also: MMP2-cleaved cleavable peptide, macrocycle opened, cut site not given here, remnants on Glu19 and N-terminus unspecified"}, "B9": {"name": "CMP-154 (ligand)", "chain": "PLGLAGAPTSSSTKKTQLQLEHLLLDLQ[Nle]ILNGIENYKNPKLTR[Nle]L[hSer][Yn3]KF[Ygp][Nle]PKKATELKHLQCLEEELKPLEEVL[hSer]LAQSKNFHLRPRDLISNINVIVLELKGSETTF[hSer]CEYADETATIVEFLNRWITFSQSIISTLT", "modifications": "linker N-35 via 9x polyethylene glycol"}, "B10": {"name": "CMP-137, MMP2 cleaved (ligand)", "chain": "APTSSSTKKTQLQLEHLLLDLQ[Nle]ILNGIENYKNPKLTR[Nle]L[hSer][Yn3″]KF[Ygp″][Nle]PKKATELKHLQCLEEELKPLEEVL[hSer]LAQSKNFHLRPRDLISNINVIVLELKGSETTF[hSer]CEYADETATIVEFLNRWITFSQSIISTLT", "modifications": "not fully specified (residue 29, N-terminus); ends and bridges not checked; also: macrocycle opened by MMP2, Ala1 N-terminus and Glu29 side chain each carry PEG24-linked peptide remnant, cut site not given here"}, "B11": {"name": "CMP-151, MMP2 cleaved (ligand)", "chain": "APTSSSTKKTQLQLEHLLLDLQKILNGINNYKNPKLTR[Nle]L[hSer][Yn3]KF[Ygp][Nle]PKKATELKHLQCLEEELKPLEEVL[hSer]LAQSKNFHLRPRDLISNINVIVLELKGSETTF[hSer]CEYADETATIVEFLNRWITFSQSIISTLT", "modifications": "disulfide 58-105; also: MMP2-cleaved cleavable peptide, macrocycle opened, cut site not given here, remnants on Lys23 and Ala1 N-terminus unspecified"}, "B12": {"name": "CMP-154, MMP2 cleaved (ligand)", "chain": "PLGLAGAPTSSSTKKTQLQLEHLLLDLQ[Nle]ILNGIENYKNPKLTR[Nle]L[hSer][Yn3]KF[Ygp][Nle]PKKATELKHLQCLEEELKPLEEVL[hSer]LAQSKNFHLRPRDLISNINVIVLELKGSETTF[hSer]CEYADETATIVEFLNRWITFSQSIISTLT", "modifications": "also: macrocycle (9x PEG linker between residue 1 and Glu35 side chain) opened by MMP2 cleavage within PLGLAG, cut site not given here"}, "B13": {"name": "CMP-156 (ligand)", "chain": "APTSSSTKKTQLQLEHLLEDLQ[Nle]ILNGINNYKNPKLTR[Nle]L[hSer][Yn3]KF[Ygp][Nle]PKKATELKHLQCLEEELKPLEEVL[hSer]LAQSKNFHLRPRDLISNINVIVLELKGSETTF[hSer]CEYADETATIVEFLNRWITFSQSIISTLT", "modifications": "linker N-19 via cleavable peptide, 4x polyethylene glycol; not fully specified; reading uncertain"}, "B14": {"name": "CMP-157 (ligand)", "chain": "PLGLAGAPTSSSTKKTQLQLEHLLEDLQ[Nle]ILNGINNYKNPKLTR[Nle]L[hSer][Yn3]KF[Ygp][Nle]PKKATELKHLQCLEEELKPLEEVL[hSer]LAQSKNFHLRPRDLISNINVIVLELKGSETTF[hSer]CEYADETATIVEFLNRWITFSQSIISTLT", "modifications": "linker N-25 via 4x polyethylene glycol; reading uncertain"}, "B15": {"name": "CMP-152, MMP2 cleaved (ligand)", "chain": "PLGLAGAPTSSSTKKTQLQLEHLLLDLQ[Nle]ILNGINNYKNPKLTR[Nle]L[hSer][Yn3]KF[Ygp][Nle]PKKATELKHLQCLEEELKPLEEVL[hSer]LAQSKNFHLRPRDLISNINVIVLELKGSETTF[hSer]CEYADETATIVEFLNRWITFSQSIISTLT", "modifications": "also: macrocycle (glutaric acid-9x PEG linker between residue 1 and Lys38 side chain) opened by MMP2 cleavage within PLGLAG, cut site not given here"}}, "note": "Bridges are numbered along the chain shown (N, C = ends). Primed or numbered codes have the meaning given here. [ ]: non-standard residue; d: D form. Ygp″ = O-(PEG8-amino)-tyrosine (O-(8x polyethylene glycol-amino)-tyrosine); Yn3″ = O-(PEG9-azido)-tyrosine (O-(9x polyethylene glycol-azido)-tyrosine); cleavable peptide, 4x polyethylene glycol = not defined here; Ygp = O-(8x polyethylene glycol-amino)-tyrosine; Yn3 = O-(9x polyethylene glycol-azido)-tyrosine; 4x polyethylene glycol = not defined here; PEG16′ = 16x polyethylene glycol; hSer = N[C@@H](CCO)C(=O)O; Nle = CCCC[C@H](N)C(=O)O"}
{"target": "T1, IL-2 receptor βγ complex on pan T cells (human, UniProt P14784 27-551; P31785 23-369)", "T1 sequence (looked up) 1": "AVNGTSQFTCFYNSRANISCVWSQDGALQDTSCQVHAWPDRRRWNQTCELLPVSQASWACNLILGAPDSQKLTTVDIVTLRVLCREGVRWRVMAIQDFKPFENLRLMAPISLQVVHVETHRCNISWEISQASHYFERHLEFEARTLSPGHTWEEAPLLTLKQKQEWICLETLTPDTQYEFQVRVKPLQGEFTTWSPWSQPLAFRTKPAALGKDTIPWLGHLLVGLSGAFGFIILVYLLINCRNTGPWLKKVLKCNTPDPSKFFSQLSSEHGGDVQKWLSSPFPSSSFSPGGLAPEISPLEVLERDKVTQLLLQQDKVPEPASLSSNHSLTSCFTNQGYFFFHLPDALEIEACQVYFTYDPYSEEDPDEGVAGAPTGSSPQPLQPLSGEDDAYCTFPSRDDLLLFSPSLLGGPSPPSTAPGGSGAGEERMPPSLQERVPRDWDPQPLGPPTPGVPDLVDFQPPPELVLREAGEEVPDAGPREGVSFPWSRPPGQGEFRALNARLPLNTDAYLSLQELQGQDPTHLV", "T1 sequence (looked up) 2": "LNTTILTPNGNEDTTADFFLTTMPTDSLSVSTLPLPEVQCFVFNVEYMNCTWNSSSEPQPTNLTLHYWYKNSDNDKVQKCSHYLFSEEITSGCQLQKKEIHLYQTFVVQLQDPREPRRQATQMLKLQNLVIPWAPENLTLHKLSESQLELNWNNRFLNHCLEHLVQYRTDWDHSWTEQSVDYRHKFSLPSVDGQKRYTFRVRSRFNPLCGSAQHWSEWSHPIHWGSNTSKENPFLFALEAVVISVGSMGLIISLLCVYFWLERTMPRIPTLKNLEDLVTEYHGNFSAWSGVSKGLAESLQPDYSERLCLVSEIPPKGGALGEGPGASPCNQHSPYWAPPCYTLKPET", "assay": "cell-based or functional assay", "units": {"Average EC50, pSTAT5 assay in pan T cells, MMP2 cleaved molecule": "nM", "Average EC50, pSTAT5 assay in pan T cells, intact molecule": "nM"}}
{"binder": "B1", "Average EC50, pSTAT5 assay in pan T cells, MMP2 cleaved molecule": 0.45}
{"binder": "B2", "Average EC50, pSTAT5 assay in pan T cells, intact molecule": 6.38}
{"target": "T1, IL-2 receptor βγ complex on pan T cells", "assay": "cell-based or functional assay", "remark": "another data set of the same source", "units": {"Average EC50, pSTAT5 assay in pan T cells, MMP2 cleaved molecule": "nM", "Average EC50, pSTAT5 assay in pan T cells, intact molecule": "nM"}}
{"binder": "B3", "Average EC50, pSTAT5 assay in pan T cells, MMP2 cleaved molecule": 2.9}
{"binder": "B4", "Average EC50, pSTAT5 assay in pan T cells, MMP2 cleaved molecule": 3.61}
{"binder": "B5", "Average EC50, pSTAT5 assay in pan T cells, MMP2 cleaved molecule": 2.4}
{"binder": "B6", "Average EC50, pSTAT5 assay in pan T cells, MMP2 cleaved molecule": 2.32}
{"binder": "B7", "Average EC50, pSTAT5 assay in pan T cells, intact molecule": 16.1}
{"binder": "B8", "Average EC50, pSTAT5 assay in pan T cells, MMP2 cleaved molecule": 21.3}
{"binder": "B9", "Average EC50, pSTAT5 assay in pan T cells, intact molecule": 24.7}
{"binder": "B10", "Average EC50, pSTAT5 assay in pan T cells, MMP2 cleaved molecule": 4.09}
{"binder": "B11", "Average EC50, pSTAT5 assay in pan T cells, MMP2 cleaved molecule": 1.81}
{"binder": "B12", "Average EC50, pSTAT5 assay in pan T cells, MMP2 cleaved molecule": 4.2}
{"binder": "B13", "Average EC50, pSTAT5 assay in pan T cells, intact molecule": 86}
{"binder": "B14", "Average EC50, pSTAT5 assay in pan T cells, intact molecule": 54.5}
{"binder": "B15", "Average EC50, pSTAT5 assay in pan T cells, MMP2 cleaved molecule": 2.95}
